Results from US20240059758A1 (CORAT THERAPEUTICS, published 2024).

What was measured:
[1] = target: T1, SARS-CoV-2 glycoprotein S (spike) on infectious virus (SARS-CoV-2, UniProt P0DTC2 14-1273); experiment: cell-based or functional assay
[2] = target: T1, SARS-CoV-2 glycoprotein S (spike) on …; experiment: cell-based or functional assay; remark: listed apart in the source
[3] = target: S1-subunit of the SARS-CoV-2 glycoprotein S (SARS-CoV-2, UniProt P0DTC2 16-685); experiment: titration ELISA, IgG on S1
[4] = target: receptor binding domain (RBD) of the S1-subunit of SARS-CoV-2 glycoprotein S (SARS-CoV-2, UniProt P0DTC2 319-541); experiment: titration ELISA, IgG on RBD
S1-His [5] = target: T2, S1-His (SARS-CoV-2, UniProt P0DTC2 16-685); experiment: BLI, antibody on Protein A sensor, S1-His in solution
S1-His [6] = target: T2, S1-His; experiment: BLI, antibody on FAB2G capture sensor, S1-His in solution

B1: STE90-C11 (IgG) (antibody, V domains shown)
VH: QVQLVESGGGLVQPGGSLRLSCAASGLTVSSNYMSWVRQAPGKGLEWVSVIYSGGSTYYADSVKGRFTISRDDSKNTLYLQMNSLRAEDTAVYYCARDVADAFDIWGQGTMVTVSS
VL: DIVMTQSPSFLSASVGDRVTITCRASQGISSYLAWYQQKPGKAPKLLIYAASTLQSGVPSRFSGSGSGTEFTLTISSLQPEDFATYYCQQLNSYPPFTFGPGTKVDIK
[1]
  Virus neutralization (24-well titration) TCID50 (IgG): 0.56 nM
  Virus neutralization (96-well titration) TCID50 (IgG): 0.91 nM
[2]
  Neutralization: 0.56 nM
[3]
  EC50: 0.3 nM
[4]
  EC50: 0.3 nM
S1-His [5]
  Kd: 6.53 nM
S1-His [6]
  Kd: 1.56 nM

B2: YU537-H11 (IgG) (antibody, V domains shown)
VH: EVQLLESGGGLIQPGGSLRLSCAASGLTVSSNYMSWVRQAPGKGLEWVSVIYSGGSTYYADSVKGRFTISRDNSKNALYLQMNSLRAEDTAVYYCARGESGSPYGMDVWGQGTLVTVSS
VL: QSVLTQPPSVSAAPGQKVTISCSGSSSNIGNNYVSWYQQLPGTAPKLLIYDTNKRPSGIPDRFSGSKSGTSATLGITGLQTGDEADYYCATWDSSLSVGVFGGGTKLTVL
[1]
  Virus neutralization (24-well titration) TCID50 (IgG): 0.47 nM
  Virus neutralization (96-well titration) TCID50 (IgG): 0.27 nM
[2]
  Neutralization: 0.47 nM
[4]
  EC50: 1.4 nM
S1-His [5]
  Kd: 32.5 nM
S1-His [6]
  Kd: 11.7 nM
